According to patent publication US5705398A, “Methods for identifying inhibitors of LPS-mediated LBP binding” (The Scripps Research Institute, priority 1994, dated 1998):
Values belong to the molecule of their own block, whether it stands above or below them.

Columns and labels:
[1] = biological target: T1, LPS-Binding Protein (LBP) (Oryctolagus cuniculus, UniProt P17454); experiment: Fluorescence spectroscopy assay of F-LPS binding to LBP; design: species or system rabbit; settings: for fluorescence intensity, +LBP (F-LPS+peptide+LBP): 10 ng/ml F-LPS + 1 mM polypeptide + 1 ug/ml rabbit LBP, no-peptide control 2700 (Experiment A, peptides 1-4), 2300 (Experiment B, peptides 5-8); for fluorescence intensity, +peptide (F-LPS+peptide): 10 ng/ml F-LPS + 1 mM polypeptide, before LBP; for fluorescence intensity, +F-LPS (F-LPS alone): 10 ng/ml F-LPS in PBS/2 mM EDTA pH 7.4, before peptide addition (baseline of the run); for inhibition of LPS binding to LBP (in words): 1 mM polypeptide, from Table 3
T1 construct: isolated from acute phase rabbit serum; from tissue; host or cells: acute phase rabbit serum
T1 sequence (P17454 27-482): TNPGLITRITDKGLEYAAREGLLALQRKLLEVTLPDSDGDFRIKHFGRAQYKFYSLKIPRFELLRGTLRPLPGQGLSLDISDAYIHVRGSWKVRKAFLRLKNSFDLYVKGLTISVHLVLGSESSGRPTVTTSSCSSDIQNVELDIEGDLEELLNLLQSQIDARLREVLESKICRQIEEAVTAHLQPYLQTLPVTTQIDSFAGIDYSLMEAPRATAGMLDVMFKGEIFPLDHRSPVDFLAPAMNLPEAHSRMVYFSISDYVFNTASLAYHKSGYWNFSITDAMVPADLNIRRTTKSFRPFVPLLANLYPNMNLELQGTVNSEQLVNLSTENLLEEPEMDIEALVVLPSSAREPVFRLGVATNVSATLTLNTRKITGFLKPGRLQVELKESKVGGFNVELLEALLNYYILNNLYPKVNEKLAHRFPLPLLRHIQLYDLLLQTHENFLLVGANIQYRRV
Method: The fluorescence spectroscopy assay method detects the intensity of fluorescence of fluoresceinated LPS in the presence of LBP.
The assay reaction admixture was prepared by admixing 10 ng/ml F-LPS and 1 ug/ml rabbit LBP into a solution of phosphate buffered saline (PBS) containing 2 mM EDTA, pH 7.4. The FI was then measured with an SLM 8000 photon counting spectrophotometer (SLM, Urbana, Ill.). A continuous FI output was measured over time while first the F-LPS was added to the PBS/EDTA solution, and then the LBP was added.
To study the effect of an LBP-derived polypeptide upon the effect of LBP on the FI of F-LPS, a polypeptide was added to the assay admixture at a concentration of 1 mM polypeptide prior to the addition of LBP, which was typically added about 30 to 150 seconds after the polypeptide was added to the admixture.

CD14 [2] = biological target: T2, CD14 (Homo sapiens, UniProt P08571); experiment: Fluorescence spectroscopy assay of F-LPS binding to soluble CD14 in presence of LBP, with peptides; settings: for fluorescence intensity, +CD14: 10 ug/ml soluble CD14 added before LBP, no-peptide control 1500; for fluorescence intensity, +LBP: F-LPS + polypeptide + 10 ug/ml sCD14 + 40 ng/ml rabbit LBP, no-peptide control 6300; for inhibition of fluorescence of F-LPS / LPS binding to LBP in presence of LBP and CD14 (in words): from Table 4
T2 construct: made in house; host or cells: CHO cells (clone 523, vector pEE14), secreted into culture medium
T2 sequence (P08571 20-375): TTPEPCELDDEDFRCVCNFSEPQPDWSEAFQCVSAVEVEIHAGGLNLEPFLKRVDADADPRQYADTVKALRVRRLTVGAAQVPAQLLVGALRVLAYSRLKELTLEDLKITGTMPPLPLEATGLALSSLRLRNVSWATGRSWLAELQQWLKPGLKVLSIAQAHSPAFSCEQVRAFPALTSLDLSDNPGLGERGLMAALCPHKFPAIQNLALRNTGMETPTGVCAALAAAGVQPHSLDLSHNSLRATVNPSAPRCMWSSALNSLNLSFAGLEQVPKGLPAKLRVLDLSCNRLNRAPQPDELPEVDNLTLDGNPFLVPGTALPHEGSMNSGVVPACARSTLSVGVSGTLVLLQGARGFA
Method: (§1) The fluorescence spectroscopy assay method also detects the intensity of fluorescence of fluoresceinated LPS in the presence of LBP and soluble CD14.
(§2) The assay to measure binding interactions between CD14 and LPS or LPS-LBP complex was conducted essentially as described in Example 1 with the following exceptions. First, the amount of rabbit LBP in the reaction admixture was 40 ng/ml. Second, soluble CD14 (sCD14) prepared as described in Example 2A was added to the reaction admixture at a concentration of 10 ug/ml prior to addition of the LBP to the reaction admixture. Peptides 6, 7 and 8, whose sequences are shown in Table 2, were each separately added to assay reaction admixtures, and the resulting FI was measured.

Human CD14 = experiment: as above; settings: for fluorescence intensity, +peptide (F-LPS+peptide): F-LPS + polypeptide, before CD14 and LBP; for fluorescence intensity, +F-LPS (F-LPS alone): before peptide addition (baseline of the run)
Method: as §1, §2

CD14 [3] = biological target: T2, CD14; experiment: Competition of non-fluoresceinated LPS with F-LPS in LBP/CD14 binding assay; settings: similar to FIG. 3 with Re595 LPS
[4] = biological target: T3, recombinant human soluble CD14 (Homo sapiens, UniProt P08571); experiment: F-LPS/CD14 fluorescence assay comparing LBP with other LPS-binding proteins; settings: 20 ng/ml F-LPS; for effect on FI of F-LPS with CD14 when replacing LBP: protein 300 ng/ml, CD14 0 to 10 ug/ml
T3 construct: made in house; host or cells: CHO cells (clone 523, vector pEE14), secreted into culture medium
T3 sequence (P08571 20-375): T2 sequence (P08571 20-375)
Method: For the assay, LBP or the other known LPS-binding proteins were added to the admixture at a concentration of 300 nanograms/milliliter (ng/ml) and were separately admixed with varying amounts the recombinant human soluble CD14 ranging in concentration from 0 to 10 micrograms/milliliter (ug/ml).
To this admixture, 20 ng/ml of F-LPS prepared in Example 1 were admixed to form a binding admixture. Fluorescence measurements were then performed as described above to determine the effect of LBP and CD14 on the FI of F-LPS.

- fluorescence intensity, +LBP (F-LPS+peptide+LBP) [1]: 2300 FIU
- fluorescence intensity, +peptide (F-LPS+peptide) [1]: 800 FIU
- fluorescence intensity, +F-LPS (F-LPS alone) [1]: 700 FIU
- fluorescence intensity, +CD14 (CD14 [2]): 1500 FIU
- fluorescence intensity, +LBP (CD14 [2]): 5400 FIU
- fluorescence intensity, +peptide (F-LPS+peptide) (Human CD14): 1400 FIU
- fluorescence intensity, +F-LPS (F-LPS alone) (Human CD14): 1400 FIU
Molecule: QTHENFLLVGANIQYRRV [Peptide 8]

- fluorescence intensity, +LBP (F-LPS+peptide+LBP) [1]: 2000 FIU
- fluorescence intensity, +peptide (F-LPS+peptide) [1]: 750 FIU
- fluorescence intensity, +F-LPS (F-LPS alone) [1]: 750 FIU
Molecule: GIDYSLMEAPRATA [Peptide 5]

- inhibition of FI increase by non-fluoresceinated LPS preparations (in words) (CD14 [3]): dose dependent inhibition
Molecule: CCCCCCCCCCC[C@@H](O)CC(=O)N[C@H]1[C@H](OC[C@H]2O[C@H](OP(=O)(O)O)[C@H](NC(=O)C[C@H](O)CCCCCCCCCCC)[C@@H](OC(=O)C[C@H](O)CCCCCCCCCCC)[C@@H]2O)O[C@H](CO)[C@@H](OP(=O)(O)O)[C@@H]1OC(=O)C[C@H](O)CCCCCCCCCCC [lipid IVa]

- fluorescence intensity, +LBP (F-LPS+peptide+LBP) [1]: 2300 FIU
- fluorescence intensity, +peptide (F-LPS+peptide) [1]: 900 FIU
- fluorescence intensity, +F-LPS (F-LPS alone) [1]: 800 FIU
Molecule: LQPYLQTLPVTTQIDS [Peptide 4]

Molecule: lipid A [synthetic lipid A]
- inhibition of FI increase by non-fluoresceinated LPS preparations (in words) (CD14 [3]): dose dependent inhibition

- fluorescence intensity, +LBP (F-LPS+peptide+LBP) [1]: 800 FIU
- fluorescence intensity, +peptide (F-LPS+peptide) [1]: 800 FIU
- fluorescence intensity, +F-LPS (F-LPS alone) [1]: 900 FIU
- inhibition of LPS binding to LBP (in words) [1]: strongly inhibit LPS binding to LBP
Molecule: KVRKAFLRLKNSFDL [Peptide 2]

- fluorescence intensity, +LBP (F-LPS+peptide+LBP) [1]: 1300 FIU
- fluorescence intensity, +peptide (F-LPS+peptide) [1]: 1600 FIU
- fluorescence intensity, +F-LPS (F-LPS alone) [1]: 800 FIU
- inhibition of LPS binding to LBP (in words) [1]: strongly inhibit LPS binding to LBP
- fluorescence intensity, +CD14 (CD14 [2]): 2000 FIU
- fluorescence intensity, +LBP (CD14 [2]): 1500 FIU
- inhibition of fluorescence of F-LPS / LPS binding to LBP in presence of LBP and CD14 (in words) (CD14 [2]): strongly inhibit LPS binding to LBP
- fluorescence intensity, +peptide (F-LPS+peptide) (Human CD14): 2400 FIU
- fluorescence intensity, +F-LPS (F-LPS alone) (Human CD14): 1200 FIU
Molecule: ATLTLNTRKIT [Peptide 7]

Molecule: TNPGLITRITDKGL [Peptide 1]
- fluorescence intensity, +LBP (F-LPS+peptide+LBP) [1]: 2400 FIU
- fluorescence intensity, +peptide (F-LPS+peptide) [1]: 900 FIU
- fluorescence intensity, +F-LPS (F-LPS alone) [1]: 900 FIU

- fluorescence intensity, +LBP (F-LPS+peptide+LBP) [1]: 1500 FIU
- fluorescence intensity, +peptide (F-LPS+peptide) [1]: 800 FIU
- fluorescence intensity, +F-LPS (F-LPS alone) [1]: 750 FIU
- inhibition of LPS binding to LBP (in words) [1]: strongly inhibit LPS binding to LBP
- fluorescence intensity, +CD14 (CD14 [2]): 1300 FIU
- fluorescence intensity, +LBP (CD14 [2]): 3500 FIU
- inhibition of fluorescence of F-LPS / LPS binding to LBP in presence of LBP and CD14 (in words) (CD14 [2]): strongly inhibit LPS binding to LBP
- fluorescence intensity, +peptide (F-LPS+peptide) (Human CD14): 1300 FIU
- fluorescence intensity, +F-LPS (F-LPS alone) (Human CD14): 1200 FIU
Molecule: PSSAREPVFRLGVAT [Peptide 6]

- effect on FI of F-LPS with CD14 when replacing LBP [4]: no effect was detected
Molecule: apotransferrin

- fluorescence intensity, +LBP (F-LPS+peptide+LBP) [1]: 2100 FIU
- fluorescence intensity, +peptide (F-LPS+peptide) [1]: 1300 FIU
- fluorescence intensity, +F-LPS (F-LPS alone) [1]: 800 FIU
- inhibition of LPS binding to LBP (in words) [1]: weakly inhibit LPS binding to LBP
Molecule: CSSDIQNVELDIEGDLEELLNLLQSQIDARLREVLESKI [Peptide 3]

- effect on FI of F-LPS with CD14 when replacing LBP [4]: no effect was detected
Molecule: lysozyme

- maximum FI ([4]; LBP 300 ng/ml, plateau at CD14 about 10 ug/ml): greater than 90,000 fluorescence units
B1: LBP: LPS binding protein isolated from acute phase rabbit serum (protein, UniProt P17454 27-482, looked up)
Lipopolysaccharide-binding …: T1 sequence (P17454 27-482)
